How the values were obtained:
Plk4-EGFP = biological target: T1, Plk4-EGFP (Drosophila melanogaster, UniProt O97143 1-769); assay: co-IP
T1 sequence (looked up): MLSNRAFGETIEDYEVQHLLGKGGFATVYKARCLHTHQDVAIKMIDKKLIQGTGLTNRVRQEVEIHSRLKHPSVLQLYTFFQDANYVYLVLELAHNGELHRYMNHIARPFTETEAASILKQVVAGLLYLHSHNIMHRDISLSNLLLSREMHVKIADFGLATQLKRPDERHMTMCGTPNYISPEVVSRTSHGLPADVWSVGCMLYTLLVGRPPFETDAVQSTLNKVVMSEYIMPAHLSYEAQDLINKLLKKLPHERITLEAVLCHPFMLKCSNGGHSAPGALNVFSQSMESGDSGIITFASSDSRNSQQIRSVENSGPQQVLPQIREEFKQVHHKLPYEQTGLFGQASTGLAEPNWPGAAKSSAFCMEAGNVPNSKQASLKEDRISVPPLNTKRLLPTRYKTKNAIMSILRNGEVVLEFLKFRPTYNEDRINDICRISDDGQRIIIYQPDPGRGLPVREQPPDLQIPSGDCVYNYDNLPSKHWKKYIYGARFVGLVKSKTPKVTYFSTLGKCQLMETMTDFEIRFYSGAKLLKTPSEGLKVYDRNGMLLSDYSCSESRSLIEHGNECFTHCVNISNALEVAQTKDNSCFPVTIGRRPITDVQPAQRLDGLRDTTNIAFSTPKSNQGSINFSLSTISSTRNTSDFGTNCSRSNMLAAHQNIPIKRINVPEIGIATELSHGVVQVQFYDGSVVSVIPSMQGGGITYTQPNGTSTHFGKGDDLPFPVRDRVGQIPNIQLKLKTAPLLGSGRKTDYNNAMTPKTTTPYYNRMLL

SEC-MALS = biological target: the molecule itself; assay: SEC-MALS

Row | Binder | fold increase of bound Plk4-myc with Asl coexpressed, against without Asl (Plk4-EGFP) [fold] | stoichiometry N (SEC-MALS)
1 | Plk4-myc (natural protein, Drosophila melanogaster, UniProt O97143 1-769, looked up) MLSNRAFGETIEDYEVQHLLGKGGFATVYKARCLHTHQDVAIKMIDKKLIQGTGLTNRVRQEVEIHSRLKHPSVLQLYTFFQDANYVYLVLELAHNGELHRYMNHIARPFTETEAASILKQVVAGLLYLHSHNIMHRDISLSNLLLSREMHVKIADFGLATQLKRPDERHMTMCGTPNYISPEVVSRTSHGLPADVWSVGCMLYTLLVGRPPFETDAVQSTLNKVVMSEYIMPAHLSYEAQDLINKLLKKLPHERITLEAVLCHPFMLKCSNGGHSAPGALNVFSQSMESGDSGIITFASSDSRNSQQIRSVENSGPQQVLPQIREEFKQVHHKLPYEQTGLFGQASTGLAEPNWPGAAKSSAFCMEAGNVPNSKQASLKEDRISVPPLNTKRLLPTRYKTKNAIMSILRNGEVVLEFLKFRPTYNEDRINDICRISDDGQRIIIYQPDPGRGLPVREQPPDLQIPSGDCVYNYDNLPSKHWKKYIYGARFVGLVKSKTPKVTYFSTLGKCQLMETMTDFEIRFYSGAKLLKTPSEGLKVYDRNGMLLSDYSCSESRSLIEHGNECFTHCVNISNALEVAQTKDNSCFPVTIGRRPITDVQPAQRLDGLRDTTNIAFSTPKSNQGSINFSLSTISSTRNTSDFGTNCSRSNMLAAHQNIPIKRINVPEIGIATELSHGVVQVQFYDGSVVSVIPSMQGGGITYTQPNGTSTHFGKGDDLPFPVRDRVGQIPNIQLKLKTAPLLGSGRKTDYNNAMTPKTTTPYYNRMLL | ~4 | –
2 | His6-Asl-C (aa 626-994) (domain or fragment, Drosophila melanogaster, UniProt Q9VNE4 626-994, looked up) EAVAVAKESSENCSKCIESIAEITKAEIQLLKLQNVNSMQAKELKELEHALEQSKNLQAEMQEKIELSNKQDELISDLKERAKQFEAYIRQQEEHKQQNKCTPSPKSNSVSPSDPSPKELTQNRIRLIEQRVRDEMAKLFAAELKRFTNRLQKSEERSQCLQREYQTVCAELQQRQTEVDLLKQTILAERENIDEILAGREEKQKEMLQKCRQELQAKNQRIAELLREVEEQHASIDSERQSMKAVMAQWEKQRQSVDQVEHHWRQQLESLRSTHEEAMRSAQQRYQSAKRTAHNYKLYAEDKEAHMKREYERIKHEYELSLAKIEATMNQHLERRSREKHRDKENVPSNSSSDPITNSNRKPKGNGHS | – | 3
3 | His6-Asl-A (aa 1-357) (domain or fragment, Drosophila melanogaster, UniProt Q9VNE4 1-357, looked up) MNTPGISLFQGADALNINSTLDRQEEEEALQDQKRREEELGRIMVNAFDDLLDEENTIDSTTNYQSELEQPPVLPNYPSHPHHKPLQDDAQRANEIEMHRLQILLESKNNELQNVNQVANAAHKKLDDLQKHLSIMQAELDRAIREKQNTHELLVETKETCSNKDSDLDKLRSEKKQLEEDNTRLVGQLEAAKTLLTDVQSKYDMVQASKQKWEERNADLRLKQMEEAHRAQSDLLQQQLCQMKDQLDRKQNELDQINSRYNALQSGHETMLVDKAAKINELSQALDEAQMRCNQLSARPDLQAENRRQQQCIVDLKARIAYLEQTVASLHERLNETTTELDLIDSVIQQHQADESP | – | 2
4 | His6-Asl-B (aa 358-625) (domain or fragment, Drosophila melanogaster, UniProt Q9VNE4 358-625, looked up) TSRLSQMGGSRLVGSTPLNPLDRVGHIKQELYRALGNLKNKREEVRRLEKLLEERNQELRVLRDQENQSLVQLETLNEGKMRLENKVKAMQQELEEQKHRSQQESDVHSQLNSIVAERDALREKRQQIEEDLEQLKQQNESLQRNYDQLSQENRQLRTRETADNLRLELERHKILLRDSQSEVERLKKLYSDIATDKESLGYELRKLRESDTLKELQDQRQNLATVQRNLQLAEMKSEELKKLLETEKLSHERDLQALRQRSEREKRE | – | 2

Source: publication PMC4332252 (The Journal of Cell Biology, 2015)
